US20250250357A1
Like-named read-outs stand apart in the source and are kept apart here. One block for each substance: values may come before it.

Key:
[1] = molecular target: human MSLN-hFc protein (Acro, Cat. No. MSN-H5253) (human) (UniProt Q13421); assay: ELISA on coated antigen, antibody 0.01 nM
[2] = molecular target: human MSLN-hFc protein (Acro, Cat. No. MSN-H5253) (human) (UniProt Q13421); assay: ELISA on coated antigen, antibody 100 nM
[3] = molecular target: human MSLN-R3 on HEK293T-hMSLN-R3 recombinant cells (human) (UniProt Q13421); assay: FACS, HEK293T-hMSLN-R3 cells
Chain of human MSLN-R3 on HEK293T-hMSLN-R3 recombinant cells (human) (Q13421 495-614): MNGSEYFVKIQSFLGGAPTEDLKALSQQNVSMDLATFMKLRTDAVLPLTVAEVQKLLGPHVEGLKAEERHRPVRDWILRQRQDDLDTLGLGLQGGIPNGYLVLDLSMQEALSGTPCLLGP

[4] = molecular target: human MSLN-hFc protein (Acro, Cat. No. MSN-H5253) (human) (UniProt Q13421); assay: ELISA on coated antigen, antibody 10 nM
[5] = molecular target: monkey MSLN on HEK293T-monkey MSLN recombinant cells (monkey); assay: FACS, HEK293T-monkey MSLN cells
[6] = molecular target: monkey MSLN on HEK293T-monkey MSLN recombinant cells (monkey); assay: FACS, HEK293T-monkey MSLN cells; remark: listed apart in the source
[7] = molecular target: human MSLN-R3 on HEK293T-hMSLN-R3 recombinant cells (human) (UniProt Q13421); assay: FACS, HEK293T-hMSLN-R3 cells; remark: listed apart in the source
[8] = molecular target: human MSLN-hFc protein (Acro, Cat. No. MSN-H5253) (human) (UniProt Q13421); assay: ELISA on coated antigen, antibody 0.0001 nM
[9] = molecular target: human MSLN-R3 on HEK293T-hMSLN-R3 recombinant cells (human) (UniProt Q13421); assay: FACS, HEK293T-hMSLN-R3 cells; remark: listed apart in the source
[10] = molecular target: human MSLN on OVCAR3 tumor cells (human) (UniProt Q13421); assay: FACS, OVCAR3 cells
Chain of human MSLN on OVCAR3 tumor cells (human) (Q13421 other isoform, or with tags, fused parts or gaps): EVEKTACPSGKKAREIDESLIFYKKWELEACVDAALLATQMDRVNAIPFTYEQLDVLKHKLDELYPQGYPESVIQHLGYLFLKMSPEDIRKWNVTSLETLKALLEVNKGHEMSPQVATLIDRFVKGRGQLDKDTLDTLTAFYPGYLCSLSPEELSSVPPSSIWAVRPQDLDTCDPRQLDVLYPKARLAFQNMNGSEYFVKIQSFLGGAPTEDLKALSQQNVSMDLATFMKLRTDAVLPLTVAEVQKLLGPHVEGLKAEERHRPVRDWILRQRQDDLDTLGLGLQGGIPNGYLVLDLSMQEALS

[11] = molecular target: monkey MSLN on HEK293T-monkey MSLN recombinant cells (monkey); assay: FACS, HEK293T-monkey MSLN cells; remark: listed apart in the source
[12] = molecular target: human MSLN-R3 on HEK293T-hMSLN-R3 recombinant cells (human) (UniProt Q13421); assay: FACS, HEK293T-hMSLN-R3 cells; remark: listed apart in the source
[13] = molecular target: monkey MSLN on HEK293T-monkey MSLN recombinant cells (monkey); assay: FACS, HEK293T-monkey MSLN cells; remark: listed apart in the source
[14] = molecular target: human MSLN-hFc protein (Acro, Cat. No. MSN-H5253) (human) (UniProt Q13421); assay: ELISA on coated antigen, antibody 1 nM
[15] = molecular target: human MSLN-hFc protein (Acro, Cat. No. MSN-H5253) (human) (UniProt Q13421); assay: ELISA on coated antigen, antibody 0.001 nM
[16] = molecular target: human MSLN-hFc protein (Acro, Cat. No. MSN-H5253) (human) (UniProt Q13421); assay: ELISA on coated antigen, antibody 0.1 nM
[17] = molecular target: human MSLN-hFc protein (Acro, Cat. No. MSN-H5253) (human) (UniProt Q13421); assay: ELISA on coated antigen, antibody 1 nM; remark: listed apart in the source
[18] = molecular target: human MSLN-hFc protein (Acro, Cat. No. MSN-H5253) (human) (UniProt Q13421); assay: ELISA on coated antigen, antibody 0.001 nM; remark: listed apart in the source
[19] = molecular target: human MSLN on OVCAR3 tumor cells (human) (UniProt Q13421); assay: FACS, OVCAR3 cells; remark: listed apart in the source
[20] = molecular target: human MSLN on OVCAR3 tumor cells (human) (UniProt Q13421); assay: FACS, OVCAR3 cells; remark: listed apart in the source
[21] = molecular target: human MSLN-hFc protein (Acro, Cat. No. MSN-H5253) (human) (UniProt Q13421); assay: ELISA on coated antigen, antibody 0.1 nM; remark: listed apart in the source
[22] = molecular target: human MSLN on OVCAR3 tumor cells (human) (UniProt Q13421); assay: FACS, OVCAR3 cells; remark: listed apart in the source
[23] = molecular target: human MSLN-hFc protein (Acro, Cat. No. MSN-H5253) (human) (UniProt Q13421); assay: ELISA, coated human MSLN-hFc, antibody 100 nM
[24] = molecular target: human MSLN-hFc protein (Acro, Cat. No. MSN-H5253) (human) (UniProt Q13421); assay: ELISA, coated human MSLN-hFc, antibody 0.001 nM
[25] = molecular target: human MSLN-hFc protein (Acro, Cat. No. MSN-H5253) (human) (UniProt Q13421); assay: ELISA, coated human MSLN-hFc, antibody 10 nM
[26] = molecular target: human MSLN-hFc protein (Acro, Cat. No. MSN-H5253) (human) (UniProt Q13421); assay: ELISA, coated human MSLN-hFc, antibody 0.01 nM
[27] = molecular target: human MSLN-hFc protein (Acro, Cat. No. MSN-H5253) (human) (UniProt Q13421); assay: ELISA, coated human MSLN-hFc, antibody 10 nM; remark: listed apart in the source
[28] = molecular target: human MSLN-hFc protein (Acro, Cat. No. MSN-H5253) (human) (UniProt Q13421); assay: ELISA, coated human MSLN-hFc, antibody 0.1 nM
[29] = molecular target: human MSLN-hFc protein (Acro, Cat. No. MSN-H5253) (human) (UniProt Q13421); assay: ELISA, coated human MSLN-hFc, antibody 1 nM
[30] = molecular target: human MSLN-hFc protein (Acro, Cat. No. MSN-H5253) (human) (UniProt Q13421); assay: ELISA, coated human MSLN-hFc, antibody 0.0001 nM
[31] = molecular target: human MSLN-hFc protein (Acro, Cat. No. MSN-H5253) (human) (UniProt Q13421); assay: ELISA, coated human MSLN-hFc, antibody 0.1 nM; remark: listed apart in the source
[32] = molecular target: human MSLN-hFc protein (Acro, Cat. No. MSN-H5253) (human) (UniProt Q13421); assay: ELISA, coated human MSLN-hFc, antibody 100 nM; remark: listed apart in the source
[33] = molecular target: human MSLN-hFc protein (Acro, Cat. No. MSN-H5253) (human) (UniProt Q13421); assay: ELISA, coated human MSLN-hFc, antibody 0.001 nM; remark: listed apart in the source
[34] = molecular target: human MSLN-hFc protein (Acro, Cat. No. MSN-H5253) (human) (UniProt Q13421); assay: ELISA, coated human MSLN-hFc, antibody 0.01 nM; remark: listed apart in the source
[35] = molecular target: human MSLN-hFc protein (Acro, Cat. No. MSN-H5253) (human) (UniProt Q13421); assay: ELISA, coated human MSLN-hFc, antibody 1 nM; remark: listed apart in the source
[36] = molecular target: monkey MSLN full-length protein expressed on HEK293T cells (HEK293T-monkey MSLN) (monkey); assay: FACS on HEK293T-monkey MSLN cells
[37] = molecular target: monkey MSLN full-length protein (NCBI: XP_028696439.1) on HEK293T cells (monkey); assay: FACS on HEK293T-monkey MSLN cells; antibody 4 nM
[38] = molecular target: monkey MSLN full-length protein (NCBI: XP_028696439.1) on HEK293T cells (monkey); assay: FACS on HEK293T-monkey MSLN cells; antibody 100 nM
[39] = molecular target: monkey MSLN full-length protein (NCBI: XP_028696439.1) on HEK293T cells (monkey); assay: FACS on HEK293T-monkey MSLN cells; antibody 0.8 nM
[40] = molecular target: monkey MSLN full-length protein (NCBI: XP_028696439.1) on HEK293T cells (monkey); assay: FACS on HEK293T-monkey MSLN cells; antibody 20 nM
[41] = molecular target: monkey MSLN full-length protein (NCBI: XP_028696439.1) on HEK293T cells (monkey); assay: FACS on HEK293T-monkey MSLN cells; antibody 0.00128 nM
[42] = molecular target: monkey MSLN full-length protein (NCBI: XP_028696439.1) on HEK293T cells (monkey); assay: FACS on HEK293T-monkey MSLN cells; antibody […]
[43] = molecular target: monkey MSLN full-length protein (NCBI: XP_028696439.1) on HEK293T cells (monkey); assay: FACS on HEK293T-monkey MSLN cells; antibody 0.0064 nM
[44] = molecular target: monkey MSLN full-length protein (NCBI: XP_028696439.1) on HEK293T cells (monkey); assay: FACS on HEK293T-monkey MSLN cells; antibody 0.032 nM
[45] = molecular target: human MSLN-FL-his protein (human) (UniProt Q13421); assay: ELISA, antibody 100 nM
Chain of human MSLN-FL-his protein (human) (Q13421 other isoform, or with tags, fused parts or gaps): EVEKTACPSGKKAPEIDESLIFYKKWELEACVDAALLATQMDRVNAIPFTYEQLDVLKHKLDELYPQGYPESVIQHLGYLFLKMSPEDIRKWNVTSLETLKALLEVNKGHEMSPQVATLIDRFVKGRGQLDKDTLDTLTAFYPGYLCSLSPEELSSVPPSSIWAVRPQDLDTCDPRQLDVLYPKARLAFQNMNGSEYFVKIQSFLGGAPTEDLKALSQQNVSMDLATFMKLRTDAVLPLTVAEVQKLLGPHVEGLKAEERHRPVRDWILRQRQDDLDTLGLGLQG

Chain of human MSLN-hFc protein (Acro, Cat. No. MSN-H5253) (human) (Q13421 other isoform, or with tags, fused parts or gaps limits assumed): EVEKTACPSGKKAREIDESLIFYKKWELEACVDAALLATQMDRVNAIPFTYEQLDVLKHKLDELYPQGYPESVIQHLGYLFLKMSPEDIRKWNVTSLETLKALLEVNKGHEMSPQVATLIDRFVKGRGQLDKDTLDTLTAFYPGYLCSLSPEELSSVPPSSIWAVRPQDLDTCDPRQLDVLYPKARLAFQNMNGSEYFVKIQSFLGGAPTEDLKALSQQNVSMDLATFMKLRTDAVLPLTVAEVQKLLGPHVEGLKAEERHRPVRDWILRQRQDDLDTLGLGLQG

OD450 [1]: 0.07 OD450
OD450 [2]: 0.07 OD450
Maximum MFI [3]: 304 MFI
OD450 [4]: 0.07 OD450
Maximum MFI [5]: 279 MFI
Maximum MFI [6]: 172 MFI
Maximum MFI [7]: 439 MFI
OD450 [8]: 0.06 OD450
Maximum MFI [9]: 156 MFI
Maximum MFI [10]: 336 MFI
Maximum MFI [11]: 104 MFI
Maximum MFI [12]: 92 MFI
Maximum MFI [13]: 231 MFI
OD450 [14]: 0.07 OD450
OD450 [15]: 0.07 OD450
OD450 [16]: 0.13 OD450
OD450 [17]: 0.06 OD450
OD450 [18]: 0.11 OD450
Maximum MFI [19]: 469 MFI
Maximum MFI [20]: 454 MFI
OD450 [21]: 0.06 OD450
Maximum MFI [22]: 209 MFI
Substance: Tab084 (NC) (scFv)

OD450 nm [23]: 0.07
OD450 nm [24]: 0.06
OD450 nm [25]: 0.07
OD450 nm [26]: 0.05
OD450 nm [27]: 0.05
OD450 nm [28]: 0.07
OD450 nm [29]: 0.06
OD450 nm [30]: 0.05
OD450 nm [31]: 0.05
OD450 nm [32]: 0.05
OD450 nm [33]: 0.05
OD450 nm [34]: 0.06
OD450 nm [35]: 0.05
Substance: Tab084 (NC), m971 VH-(G4S)3-VL-his (scFv)

EC50 [36]: < 0.5 nM
Maximum mean fluorescence intensity [36]: 12400
FACS fluorescence intensity [37]: 2440
FACS fluorescence intensity [38]: 3290
FACS fluorescence intensity [39]: 860
FACS fluorescence intensity [40]: 2660
FACS fluorescence intensity [41]: 90
FACS fluorescence intensity [42]: 313
FACS fluorescence intensity [43]: 100
FACS fluorescence intensity [44]: 142
Substance: Tab106 (YP218, hIgG1) (antibody)

FACS fluorescence intensity [37]: 86
FACS fluorescence intensity [38]: 87
FACS fluorescence intensity [39]: 87
OD450 nm [45]: 0.16
FACS fluorescence intensity [40]: 85
FACS fluorescence intensity [41]: 93
FACS fluorescence intensity [42]: 83
FACS fluorescence intensity [43]: 85
FACS fluorescence intensity [44]: 106
Substance: Tab131 (m912, scFv-hIgG1 Fc) (Fc fusion)
